Laboratory results as given in patent publication EP4786496A1 (Nanjing Iaso Biotechnology Co., Ltd., dated 2026).

How the values were obtained:
[1] = target: T1, BAFF-R on the surface of BAFF-R-positive cells (K562-BAFF-R, NALM6, RS4, MEC1, JEKO1) (human, UniProt Q96RJ3 1-184); experiment: flow cytometry, phage on K562-BAFF-R and NALM6 cells
T1 construct: The cell line is named under assay or readout of each row; K562-BAFF-R overexpresses BAFF-R; the others are human tumour lines that carry it natively; also called K562-BAFF-R cells; RS4-luc
T1 sequence: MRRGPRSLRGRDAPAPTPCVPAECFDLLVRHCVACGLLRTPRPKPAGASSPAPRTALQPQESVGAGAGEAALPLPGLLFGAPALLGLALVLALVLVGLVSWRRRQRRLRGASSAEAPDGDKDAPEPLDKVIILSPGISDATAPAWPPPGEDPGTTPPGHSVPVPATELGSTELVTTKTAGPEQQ

[2] = target: T2, BAFFR-mouse-rFc (50353-M31H, Sino) (mouse, UniProt Q9D8D0 1-71); experiment: ELISA, antigen coated on plate, anti-human IgG HRP
T2 construct: Bought protein; also called Mouse BAFF-R; not shown: rFc
T2 sequence: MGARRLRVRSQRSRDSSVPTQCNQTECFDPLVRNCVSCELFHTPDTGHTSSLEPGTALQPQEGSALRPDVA

[3] = target: T3, BAFFR-cyno-His (BAF-CM10R, KACTUS) (cynomolgus, UniProt Q96RJ3 7-71 (human entry), limits assumed); experiment: ELISA, antigen coated on plate, anti-human IgG HRP
T3 construct: Bought protein; also called Cyno BAFF-R; cynomolgus BAFF-R; not shown: His tag

[4] = target: T4, Recombinant biotinylated Human BAFF-R Protein (KACTUS, BAFF-R-HM401) (human, UniProt Q96RJ3 7-71, limits assumed, biotinylated (site not stated)); experiment: ELISA, antigen coated on plate, anti-human IgG HRP
T4 construct: Bought protein; treated as one product; also called BAFF-R-his-Bio; BAFF-R-Bio-his; not shown: His tag
T4 sequence: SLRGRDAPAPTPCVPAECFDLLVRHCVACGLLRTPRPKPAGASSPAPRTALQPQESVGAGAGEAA

[5] = target: T5, His-tagged human BAFF-R antigen (BAR-H52H3, Acro) (human, UniProt Q96RJ3 7-71, limits assumed); experiment: BLI (ForteBio Octet), His-tagged antigen on HIS1K sensor, antibody in solution
T5 construct: Bought protein used in BLI; not shown: His tag
T5 sequence: T4 sequence

[6] = target: T6, Streptavidin (Pierce, 21125) (UniProt P22629 37-163, limits assumed); experiment: phage ELISA
T6 construct: Control antigen of the ELISA; also called SA; control protein SA
T6 sequence (P22629 37-163 limits assumed): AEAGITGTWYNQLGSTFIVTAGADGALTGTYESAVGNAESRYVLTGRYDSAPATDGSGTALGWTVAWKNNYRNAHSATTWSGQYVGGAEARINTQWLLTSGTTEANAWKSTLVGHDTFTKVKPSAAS

[7] = target: T7, ACRO-CD70-his (Biotinylated Human CD27 Ligand ,His,Avitag; ACRObiosystem CDL-H82Q9) (human, UniProt P32970 39-193, limits assumed, biotinylated (Avitag)); experiment: phage ELISA
T7 construct: Bought unrelated antigen; not shown: His tag and Avitag
T7 sequence (looked up): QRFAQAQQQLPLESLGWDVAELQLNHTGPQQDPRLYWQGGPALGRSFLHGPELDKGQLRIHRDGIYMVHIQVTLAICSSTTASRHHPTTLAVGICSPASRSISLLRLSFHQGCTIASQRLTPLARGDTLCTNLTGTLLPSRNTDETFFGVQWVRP

[8] = target: T8, KACTUS-CD19-Fc (Recombinant biotinylated Human CD19 Protein, KACTUS CD2-HE121) (human, UniProt P15391 20-291, biotinylated (site not stated)); experiment: phage ELISA
T8 construct: Bought unrelated antigen; not shown: Fc
T8 sequence (looked up): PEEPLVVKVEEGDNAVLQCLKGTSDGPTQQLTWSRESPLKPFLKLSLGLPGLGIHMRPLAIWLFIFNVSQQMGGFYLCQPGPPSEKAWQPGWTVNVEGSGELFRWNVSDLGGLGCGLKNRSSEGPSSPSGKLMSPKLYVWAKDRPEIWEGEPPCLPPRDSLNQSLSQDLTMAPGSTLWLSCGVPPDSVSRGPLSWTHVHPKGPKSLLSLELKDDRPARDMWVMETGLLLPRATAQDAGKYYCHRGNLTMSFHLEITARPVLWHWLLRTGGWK

B1: VAY736 positive control phage antibody clone (scFv)
scFv: QVQLQQSGPGLVKPSQTLSLTCAISGDSVSSNSAAWGWIRQSPGRGLEWLGRIYYRSKWYNSYAVSVKSRITINPDTSKNQFSLQLNSVTPEDTAVYYCARYQWVPKIGVFDSWGQGTLVTVSSGGGGSGGGGSGGGGSDIVLTQSPATLSLSPGERATLSCRASQFILPEYLSWYQQKPGQAPRLLIYGSSSRATGVPARFSGSGSGTDFTLTISSLEPEDFAVYYCQQFYSSPLTFGQGTKVEIK
notes: also called VAY736 antibody
Question: Does B1 bind [1]?
Answer: binds

B2: Clone 5 monoclonal antibody with Fc comprising S228P/L235E (05VH-hFc PE) (antibody, human IgG4 S228P, V domains shown)
VH: EVQLVESGGGVVQPGRSLRLTCAASGFTFSTSGMYWIRQAPGKGLEWVSYISSSSSTIYYADSVKGRFTISRDNSKNTLYLQMNSLRAEDTAVYYCVTQSCGAGKCYPGVWGQGTTVTVSS
notes: Single-domain VH fused to a human Fc, made in CHOS cells; also called Clone 05; clone 05 monoclonal antibody
Question: Which EC50 [2] does the source give for B2 here?
Answer: 3.4 nM

Question: And the EC50 [3]?
Answer: 1.91 nM

Question: And the EC50 [4]?
Answer: 0.965 nM

Question: And the Kd [5]?
Answer: 2.63 nM

Question: What about the koff [5] of the same binder?
Answer: 0.00163 s⁻¹

Question: And the kon [5]?
Answer: 622000 M⁻¹ s⁻¹

B3: Clone 5 (monoclonal phage antibody) (VHH)
VHH: B2 VH
notes: also called 05; 05VH
Question: What does the source list for B3?
Answer: binding result [6]: no binding; binding result [7]: no binding; binding result [8]: no binding

B4: Clone 1 (monoclonal phage antibody) (scFv, V domains shown)
VH: EVQLVESGAEVKKPGASVKVSCKASGYTFTSYGISWVRQAPGQGLEWMGWISAYNGNTNYAQKLQGRVTMTTDTSTSTAYMELRSLRSDDTAVYYCARNTYYYDSSGYPNDAFDIWGQGTTVTVSS
VL: DIQMTQSPSSLSASVGDRVTITCRASQKISSYLNWYQQKPGKAPKLLIYAASSLQSGVPSRFSGSGSGADFTLTISSLQPEDFATYYCQQSYSPPTTFGGGTKVDIKR
notes: also called 01
Question: Does B4 bind [6]?
Answer: no binding

Question: Does B4 bind [7]?
Answer: no binding

Question: Does B4 bind [8]?
Answer: no binding
